Target: the molecule itself
Experiment: NMR spectroscopy of the 20-mer

B1: 20-mer representing residues 120-139 of S14 domain III (peptide)
peptide: LHHILMHLTEKAQEVTRKYQ
Does B1 bind?
Result: binds

From patent US20130336983A1 (TRUSTEES OF DARTMOUTH COLLEGE, published 2013)
